The source of these data is patent publication US20200247855A1, “THERAPY AND DIAGNOSTICS” (OXFORD UNIVERSITY INNOVATION LIMITED, priority 2017, published 2020).

For experiment [1], the target named is T1, CCL8_HUMAN (human), P80075.
T1 chain: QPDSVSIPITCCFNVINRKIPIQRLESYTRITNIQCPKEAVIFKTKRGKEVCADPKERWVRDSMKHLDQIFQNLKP
Description: FACS, inhibition of CCL8-647 binding to THP-1 cells. Particulars: modification not given. (In general: Flow cytometry measures light scatter and fluorescence of single cells or particles in a stream.)

The target of experiment [2] is T1, CCL8_HUMAN (human), P80075. Description: fluorescence polarisation; Kd1, two-site fit. The conditions noted are these: modification not given. On the technique in general: In fluorescence polarisation assays a small probe gives low polarisation when free and higher when bound to something large.
Experiment [3] has as its target T1, CCL8_HUMAN (human), P80075. The experiment is described as follows: fluorescence polarisation; Kd2, two-site fit. Particulars: modification not given.
Experiment [4] deals with T2, CCL5_HUMAN (human), P13501.
T2 chain: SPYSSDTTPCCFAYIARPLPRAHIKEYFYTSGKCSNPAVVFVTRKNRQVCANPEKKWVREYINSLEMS
The experiment is described as follows: BLI. Particulars: remark: other sources report otherwise.

One may read the IC50 as the concentration needed to halve the response being measured. A lower IC50 goes with higher potency. For orientation: Kd means the constant that tells how readily two partners part at equilibrium.

In experiment [1], EDEDYEDFFKPVTAYF [P672_PEP (peptide BK1.1)] returned an IC50 of 4900 nM.
As for EDEDYEDFFKPVTAYF [P672_PEP-FITC], the Kd in experiment [2] was found to be 11.9 nM; in experiment [3] it was 252 nM.

B1: P974_AMBCA, A0A023FDY8 22-118 (protein)
chain: ENTQQEEQDYDYGTDTCPFPVLANKTNKAKFVGCHQKCNGGDQKLTDGTACYVVERKVWDRMTPMLWYECPLGECKNGVCEDLRKKEDCRKGNGEEK
In experiment [4], B1 yielded a Kd of 160 nM.
